Reference: article PMC7261163 (Nucleic Acids Research, 2020)

What was measured:
Mom = target: T1, Mom (Escherichia phage Mu, UniProt P06018); test: microscale thermophoresis, fluorescently labelled Mom; format: binding
T1 sequence (P06018 12-241): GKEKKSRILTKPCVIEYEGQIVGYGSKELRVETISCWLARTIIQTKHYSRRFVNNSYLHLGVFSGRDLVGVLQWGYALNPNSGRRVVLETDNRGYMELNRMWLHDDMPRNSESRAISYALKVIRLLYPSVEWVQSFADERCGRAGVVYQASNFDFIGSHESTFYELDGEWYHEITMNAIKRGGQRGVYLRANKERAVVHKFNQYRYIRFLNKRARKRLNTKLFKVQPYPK

[1] = target: Mom (bacteriophage Mu), untagged, purified (bacteriophage Mu) (UniProt P06018); test: SEC
[2] = target: Mom (bacteriophage Mu), untagged, purified (bacteriophage Mu) (UniProt P06018); test: cross-linking

`CC(=O)SCCNC(=O)CCNC(=O)[C@H](O)C(C)(C)COP(=O)(O)OP(=O)(O)OC[C@H]1O[C@@H](n2cnc3c(N)ncnc32)[C@H](O)[C@@H]1OP(=O)(O)O` [acetyl CoA] gave a Kd (Mom) of roughly 49 µM.
Work on “Mom (bacteriophage Mu), untagged, purified (from UniProt P06018 2-241) (enzyme)” yielded a stoichiometry N [1] of 2 and a stoichiometry N [2] of 2.
